B1: TPR t1 (parent)
chain: GACCAAUCUGCCCUCAGAGCUCGAGAACAUCUUCGGAUGCAGAGGAGGCAGGCUUCGGUGGCGCGAUAGCGCCAACGUCCUCAACCUCCAAUGCAUCCCACCACAUGAUGAUGCCUGAAGAGCCUUGGUUUUUUG

This series covers variants of B1. Nature of the series: polymerase ribozyme fitness, log enrichment relative to wild type (log ratio); higher = more active; in vitro selection for triplet polymerase activity. Summed up:
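A single round of triplicate in vitro selection, including frozen incubation at −7 °C, was applied to PCR-built, transcribed mutant libraries of each subunit of a heterodimeric triplet polymerase ribozyme. Illumina sequencing of input and output libraries retained genotypes with ≥10 input reads and ≥1 read per output. Fitness is the base-2 logarithm of genotype enrichment divided by wild-type enrichment, from inverse-variance-weighted replicate averages.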
Take G39A G63U G69U: the “polymerase ribozyme fitness (log ratio)” value is -1.34.
In the case of G39U C73U C99U, the “polymerase ribozyme fitness (log ratio)” value is -4.75.
The same measure for G39C A43G G48U U54G G93C G113A: -5.27; for U38A C40U: -1.9; for U38G U125G: -1.35.
The same measure for U38G U96A C101U: -2.15.
The same measure for G39C G69A U112A: -3.52; for G39C A50U C53U U78G: -2.26.
In the case of U38G C56A G69U, the “polymerase ribozyme fitness (log ratio)” value was -1.9.
Regarding U38C C53A G93C G122A C123U, the “polymerase ribozyme fitness (log ratio)” value was -2.19.
For U38G G77A U78C U125A the value was -1.89.
Regarding U38A C80U, the “polymerase ribozyme fitness (log ratio)” value is -1.43.
G39C G63A C76A G117C: the “polymerase ribozyme fitness (log ratio)” value was -6.26.
For G39U C114G the value was -3.65; for G39U C114U, -2.86; for G39U C115U, -1.86.
As to U38A C94G, the “polymerase ribozyme fitness (log ratio)” value is -2.2.
The same measure for G39A G113C A119U: -3.54.
For U38G G39U U54G U87A G113C the value was -3.28.
For G39U G44A the value was -1.38; for G39U C70U, -2.34.
On to U38G U112C, for which the “polymerase ribozyme fitness (log ratio)” value amounted to 0.772.
For U38C C56U C98U G110U the value was -5.51; for G39A A43U C114U, -2.78.
On to G39A G69U C79A G127A, for which the “polymerase ribozyme fitness (log ratio)” value is -2.91.
The same measure for A37U U133G: -1.2; for U38A G69C: -2.61; for U38C G63A G77C U131G: -2.97.
As to G39U A41C C94U C124A, the “polymerase ribozyme fitness (log ratio)” value stood at 0.616.
The same measure for G39A G57U U116A U125A: -4.53; for U38G G47C C62U C85A: -5.9.
For U38G G60A G110C U125A the value was -6.15; for U38G C62U C86U C115A, -2.04.
For U38C C70A the value was -1.91; for G39A C53G G57C, 0.135; for G39U C72U, -1.72.
Turning to G39A G48A C88A, the “polymerase ribozyme fitness (log ratio)” value was -1.33.
As to U38G G57U C62A A91U C97A G117A G120C, the “polymerase ribozyme fitness (log ratio)” value was -7.34.
The same measure for G39A A74U C82A: -0.903.
In the case of G39U G48C U78G G113U, the “polymerase ribozyme fitness (log ratio)” value was -4.42.
For U38G G45U G47A C73U the value was -5.77.
For U38A U130C the value was -0.259; for G39A C62U A83U U87G, -0.927; for G39A G60U, 0.0117.
For G39A G60A the value was -0.734; for G39C G63C C104A, -3.07; for G39C C98U G117A, -3.94.
For G39A G71U, the “polymerase ribozyme fitness (log ratio)” value is -0.815.
The same measure for G39A G71A: -1.08; for A37U U130G: -1.28.
The same measure for G39U C101A: -2.22; for G39A G44U C86A A108U C115U G128U U130G: -6.8; for U38G C70U U125G: -2.25.
The same measure for G39U A46G U78A C89U A95U C97U: -2.4.
For G39A C102A, the “polymerase ribozyme fitness (log ratio)” value is -2.49.
For A37U U54C G60U the value was 1.01; for G39U A43U G52C C73G C94A C97G G110C, -7.55; for G39A C40U C72G, -2.72.
Regarding G39A G117C, the “polymerase ribozyme fitness (log ratio)” value is -4.05.
Turning to G39A G117A, the “polymerase ribozyme fitness (log ratio)” value is -1.8.
For the variant G39A G117U, the “polymerase ribozyme fitness (log ratio)” value was -2.58.
For U38A C62G, the “polymerase ribozyme fitness (log ratio)” value was -3.68.
In the case of U38C U59G A95C, the “polymerase ribozyme fitness (log ratio)” value was -0.718.
The same measure for U38G G42U G120C U126G G128U: -3.39; for G39A A46U G61A U129A: -2.38.
The same measure for A37U U59C: -0.107.
For A37U U59A the value was -0.609; for G39C U78C, -1.14.
G39A C62A C72G: the “polymerase ribozyme fitness (log ratio)” value is -4.2.
The same measure for A37U U54C G60U C123U: 1.13; for G39A C40G G69U C101A: -2.28.
For U38A A41G G44A C64U C82U the value was -4.14.
The same measure for U38C A46C C53A C76G C80U C94U: -2.96.
On to G39C G45C C64U C82A C85G, for which the “polymerase ribozyme fitness (log ratio)” value was -5.8.
For U38A G52U C62U U78G A90G the value was -2.07; for G39C C115U C124A, -0.672; for G39U G58A A105C, -5.05.
The same measure for U38G G58U G63C G113C G135C: -4.03; for A37U U126A: -2.55; for G39U G48U A90U: -2.92.
As to G39C G57A, the “polymerase ribozyme fitness (log ratio)” value was -1.33.
G39A U116A U129C: the “polymerase ribozyme fitness (log ratio)” value is -3.92.
As to G39U C104A G120A, the “polymerase ribozyme fitness (log ratio)” value was -1.22.
The same measure for G39U G44C U59A: -2.12; for U38C G39U: -1.44.
Take U38G G127U G135U: the “polymerase ribozyme fitness (log ratio)” value was -2.73.
For the variant G39A G47U G48A C70U C101A, the “polymerase ribozyme fitness (log ratio)” value is -5.46.
In the case of G39A A50U A118U, the “polymerase ribozyme fitness (log ratio)” value is -0.352.
For U38A C49G G60U G61A U116C U125A the value was -4.75; for G39U C53U G61U C123A G135U, -0.952.
The same measure for G39U C53G U87A A90G: -0.306; for U38A G71A U129A: -3.95; for G39U G45U G48A C73A C79G G113A: -5.88.
For G39A G71C G93C C94U the value was -2.14; for G39A A43U C72G, -1.83; for U38G C76U, -1.36.
Take G39U C102A: the “polymerase ribozyme fitness (log ratio)” value is -3.45.
Regarding G39A A118U, the “polymerase ribozyme fitness (log ratio)” value was determined as 0.354.
The same measure for G39C G45U G61A U112C: 0.603; for G39C C73U C99U C102A C124A G135A: -4.92; for U38A G52A U55G G128A: -2.73.
The same measure for G39C G48A G71U: -1.51; for G39U C70U U96G G113U: -7.29.
For G39C U126A the value was -2.89; for U38C A46G, -3.03.
On to A37U U81G, for which the “polymerase ribozyme fitness (log ratio)” value was -3.43.
For G39C C104U the value was -1.04.
For G39A G69C U112A the value was -1.42.
As for U38G C104A, the “polymerase ribozyme fitness (log ratio)” value was -1.93.
For the variant U38G A83C, the “polymerase ribozyme fitness (log ratio)” value is -1.25.
Turning to G39U G57A, the “polymerase ribozyme fitness (log ratio)” value is -0.803.
The same measure for U38G C72G: -0.641; for U38A G57U G58U: -1.64; for G39A C86A C123A: -1.81.
The same measure for G39A G42U C80U C124U: -1.59.
For the variant U38G A95C A100C U106A G127A, the “polymerase ribozyme fitness (log ratio)” value is -3.43.
For U38A G63A G93U the value was -4.96; for G39A G61A U78C, -0.505.
For U38A C70U the value was -1.15; for U38G A84U, -1.9; for U38A A111G, -1.31.
The same measure for G39U C76U: -0.958.
For the variant G39U C76G, the “polymerase ribozyme fitness (log ratio)” value was -0.793.
For the variant G39A U132A, the “polymerase ribozyme fitness (log ratio)” value was -0.367.
For A37U U132C the value was -1.09.
The same measure for U38G U133A: -0.846; for G39C C73A A74U: -0.844; for G39U G58C G71A G110C: -6.06.
The same measure for A37U G113A C123U: -2.5; for U38G C89A: -2.14; for G39A C73A: -0.374.
Turning to U38G C53G, the “polymerase ribozyme fitness (log ratio)” value was -1.52.
For G39U C73A the value was -0.759; for G39A U78A A108G A111C, -1.88; for G39A G57U G71U U78G, -1.84.
For G39A A43U G63U C86G the value was -4.39; for G39U C49A A100U U106A, -1.51; for U38A A83C U92C C124A, -1.34.
Regarding G39U A41G G44U C56G A105C A111U, the “polymerase ribozyme fitness (log ratio)” value is -5.8.
The same measure for G39A C62U G122A: -1.13; for U38G G45C G69C C101A A119U: -7.2; for G39A A74G: -0.641.
The same measure for A37U U38A G63A: -3.7.
The same measure for G39A A43G C73G U129G: -5.71; for A37U U78C: -0.461.
With U38G C49U G61U, the “polymerase ribozyme fitness (log ratio)” value is -1.52.
On to G39C C79A, for which the “polymerase ribozyme fitness (log ratio)” value is -3.06.
For the variant G39U C79G U96C, the “polymerase ribozyme fitness (log ratio)” value is -4.66.
The same measure for G39A A41U G69U: -0.975; for U38A G45A U129C: -2.96.
The same measure for G39U C56A: -1.06; for G39U C56U: 0.0586.
Consider G39U C56G, for which the “polymerase ribozyme fitness (log ratio)” value was -1.37.
For G39A G113U the value was -2.43.
The same measure for G39U C64U C101G A108G: -4.66; for U38G G52A G61A U112G C124U U129G: -1.92.
For G39A G45A C53A C102U A111C the value was -3.94.
Regarding G39C C73G C102A, the “polymerase ribozyme fitness (log ratio)” value is -4.36.
For U38A A43C A83U C85A the value was -5.42; for U38G G51C, -6.44; for G39A C72U U81G U96A G113C C124U, -6.86.
As to U38G C53G G69U C98A, the “polymerase ribozyme fitness (log ratio)” value is -6.04.
Regarding G39U C79U C89A A111U, the “polymerase ribozyme fitness (log ratio)” value was -5.59.
G39C G48U A111U: the “polymerase ribozyme fitness (log ratio)” value was -4.49.
For G39A G63U C82U U133G the value was -2.41; for G39A G61C A118G G122A, -3.03; for A37U G117A, -1.4.
